Target: F-actin (filamentous actin) of the Actin Binding Protein Biochem Kit (BK013, Cytoskeleton) (UniProt P60709)
Experiment: co-sedimentation; F-actin spin-down assay with the Actin Binding Protein Biochem Kit (BK013, Cytoskeleton), according to manufacturer instructions; ultracentrifugation, SDS-PAGE, Coomassie staining, signals quantified

cyclin A2-GST (glutathione S-transferase) (from UniProt P20248 1-432) (natural protein)
percent detected in the pellet with F-actin: 37%
